Measured values reported in US20240239881A1.

Target: Cynomolgus monkey Ang2 C-terminal domain (Lys274-Phe495) (cynomolgus monkey)
Experiment: ForteBio BLI, antibody on AHQ sensor, 100 nM antigen, 1:1 model

Cynomolgus monkey Ang2 C-terminal domain (Lys274-Phe495) (cynomolgus monkey), sequence (chain, as listed by the source, form in doubt): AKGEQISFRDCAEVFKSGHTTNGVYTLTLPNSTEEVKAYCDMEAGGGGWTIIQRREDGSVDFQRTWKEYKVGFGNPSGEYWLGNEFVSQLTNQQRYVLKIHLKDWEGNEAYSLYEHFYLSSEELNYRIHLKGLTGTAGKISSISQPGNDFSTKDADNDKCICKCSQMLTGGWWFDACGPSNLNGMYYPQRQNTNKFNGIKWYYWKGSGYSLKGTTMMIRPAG

B1: chimeric antibody 81H10 (antibody, human IgG1, kappa, V domains shown)
VH: EVKLEESGGGLVQPGGSMKLSCVASGFTFSNYWMNWVRQSPEKGLEWVAEIRLKSNNYATHYAESVKGRFTISRDVSKSSVYLQMNNLRTEDTGIYYCTDTAPFAYWGQGTLVTVSA
VL: DIVMTQSHKFMSTSVGDRVSITCKASQDVGTDVAWYQQKPGQSPKLLIYWASTRHTGVPDRFTGSGSGTDFTLTISNVQSEDLSDYFCQQYSSYPLTFGGGTKLEIKR
- Kd: 44.3 nM

B2: humanized antibody hz81H10.4 (antibody, human IgG1, kappa, V domains shown)
VH: EVQLVESGGGLVKPGGSLRLSCAASGFTFSNYWMNWVRQAPGKGLEWVAEIRLKSNNYATHYAESVKGRFTISRDVSKNTVYLQMNSLKTEDTAVYYCTDTAPFAYWGQGTLVTVSS
VL: DIQMTQSPSSLSASVGDRVTITCKASQDVGTDVAWYQQKPGKAPKLLIYWASTRHTGVPSRFSGSGSGTDFTLTISSLQPEDFATYYCQQYSSYPLTFGGGTKVEIKR
- Kd: 88.3 nM
